Results reported in patent publication US20090203041A1, “BMP4 INHIBITORS” (priority 2006, published 2009).
Entries after “also recorded” stand apart in the source; their conditions may differ. Blank lines part the entries; values can stand above or below the molecule they belong to.

Key:
[1] = biological target: T1, BMP4 (Homo sapiens, UniProt P12644); test: BMP4-induced C2C12 cell differentiation assay, peptide preincubated with BMP4; type: cell-based; settings: peptide 5 μm preincubated with BMP4 100 ng/mL; C2C12 cells, ALP activity
T1 sequence (P12644 293-408): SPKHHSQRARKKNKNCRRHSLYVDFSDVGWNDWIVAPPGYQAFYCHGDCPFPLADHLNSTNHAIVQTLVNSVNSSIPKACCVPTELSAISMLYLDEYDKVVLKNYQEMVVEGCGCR
Description: (§1) To test whether exogenous expression of Gremlin can inhibit the activity of exogenously expressed BMP4, the activity of BMP4 secreted into the CM was measured by its effect on mouse myoblast C2C12 cell differentiation into osteoblasts. C2C12 cells were grown in 96-well plate until 90% confluence. Agents (100 ng/ml BMP4 or equivalent amounts of concentrated conditioned medium) were then added into the culture medium (Dulbecco's modified Eagle's medium with 5% fetal bovine serum) and the cells were cultured for 3 days. The cells were then lysed with 0.1% Triton X-100, and the alkaline phosphatase (ALP) activity in the cell lysate was quantified by adding substrate p-nitrophenyl phosphate and measuring absorbance at A405. Triplicate measurements were preformed for every sample. Conditioned media from cells transfected with control, Myc-BMP4, GRE-HA, or Myc-BMP4 and GRE-HA were assayed for BMP4 activity.
The function of the 30 amino acid Gremlin motif in mediating interaction between Gremlin and BMP4 and BMP4 inhibitor activity was assayed by the BMP4-induced C2C12 cell differentiation assay. A linear peptide corresponding to the mapped amino acid sequence (145-174) was synthesized by Genscript (Scotch Plains, N.J.).

[2] = biological target: T2, Myc-BMP4 (Mus musculus, UniProt P21275, INS296EQKLISEEDL); test: Co-immunoprecipitation of Myc-BMP4 with HA-tagged Gremlin proteins co-expressed in COS-1 cells (anti-HA IP, anti-Myc Western blot); type: binding; settings: co-transfected COS-1 cells
T2 construct: expressed in transfected cells; host or cells: COS-1 cells
T2 sequence (P21275 with tags, fused parts or gaps limits assumed): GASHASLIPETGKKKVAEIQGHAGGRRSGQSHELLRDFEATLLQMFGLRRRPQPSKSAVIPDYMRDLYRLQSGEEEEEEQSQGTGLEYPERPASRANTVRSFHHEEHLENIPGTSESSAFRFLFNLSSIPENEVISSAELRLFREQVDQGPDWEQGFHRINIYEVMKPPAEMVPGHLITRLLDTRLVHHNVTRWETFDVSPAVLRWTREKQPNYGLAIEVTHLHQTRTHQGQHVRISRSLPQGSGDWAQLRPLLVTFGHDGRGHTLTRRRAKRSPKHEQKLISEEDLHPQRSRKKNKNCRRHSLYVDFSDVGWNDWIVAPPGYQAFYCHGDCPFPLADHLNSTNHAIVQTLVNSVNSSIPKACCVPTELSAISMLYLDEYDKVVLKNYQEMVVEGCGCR
Description: (§2) To test whether exogenous BMP4 and Gremlin physically interact intracellularly, Myc-BMP4 and GRE-HA were co-transfected into COS-1 cells using Lipofectamine Plus (Invitrogen). Transfected cells were first cultured in medium containing 10% fetal calf serum for 20 hours and then cultured in serum-free conditioned medium (CM) for an additional 48 hours, and experiments were repeated at least three times.
To determine the specificity of BMP4-Gremlin binding and the molecular motif of Gremlin that is responsible for the intermolecular interaction, two truncated Gremlin molecules, GRE-DAN-HA and GRE-NF-HA, were generated with truncation of the NH2-terminal fragment (NF) or the carboxyl-terminal DAN domain (DAN), respectively, as diagramed in FIG. 6A (amino acid positions are in reference to SEQ ID NO:4). The two truncated Gremlin molecules were co-transfected with Myc-BMP4 into COS-1 cells, and immunoprecipitation was performed with anti-HA antibodies.
Partial cDNA of mouse Mucin-2, which encodes a Mucin-2 protein fragment of 114 amino acids on the carboxyl terminus (PQNQ . . . LGRK, GenBank™ accession number XP—620590) was generated by high fidelity RT-PCR (Pfu, Stratagene) and verified by DNA sequencing. An HA epitope was also added to the carboxyl terminus of Mucin-2 by inverted PCR. A variety of Gremlin-Mucin-2 chimeric cDNA constructs were created by inverted PCR in combination with restricted digestion and ligation of PCR products. The Gremlin-Mucin-2 chimeras generated are as diagrammed in FIG. 7B. These HA-epitope tagged Gremline-Mucin-2 chimera proteins were co-expressed with Myc-BMP in COS-1 cells by transient transfection. The BMP4 binding activities and inhibitory activities were evaluated by immunoprecipitation and BMP4-stimulated C2C12 cell differentiation assay as described in Examples 3 and 4. The results for the Gremlin-Mucin-2 chimeras are seen in FIGS. 8A and 8B.

[3] = biological target: Myc-tagged mouse BMP4 (Myc-BMP4) (mouse) (UniProt P21275); test: cell-based or functional assay
[4] = biological target: T3, BMP4 (Mus musculus, UniProt P21275); test: BMP4-stimulated C2C12 cell differentiation assay (alkaline phosphatase activity) with conditioned medium of transfected COS-1 cells; type: cell-based; settings: C2C12 ALP activity
T3 construct: mature but no precursor BMP4 was detected in the concentrated CM; expressed in transfected cells; host or cells: COS-1 cells (conditioned medium applied to C2C12 cells)
T3 sequence (P21275 with tags, fused parts or gaps): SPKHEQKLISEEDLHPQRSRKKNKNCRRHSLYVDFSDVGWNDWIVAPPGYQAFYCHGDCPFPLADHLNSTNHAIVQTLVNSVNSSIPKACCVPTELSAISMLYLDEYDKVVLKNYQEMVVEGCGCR
Description: as §2, §1
CM collected separately from cells transfected with Myc-BMP4 or GRE-HA was mixed and preincubated for 1 hour before adding to C2C12 cells (1). COS-1 cells were transfected separately with Myc-BMP4 or GRE-HA, trypsinized and co-cultured during CM collection (2).

B1: GRE-DAN-HA: truncated HA-tagged Gremlin with the NH2-terminal fragment deleted (protein)
chain: CKTQPLKQTIHEEGCNSRTIINRFCYGQCNSFYIPRHIRKEEGSFQSCSFCKPKKFTTMMVTLNCPELQPPTKKKRVTRVKQCRCISIDLD
modifications: left off: small tags and cut ends
notes: truncated HA-tagged Gremlin with the NH2-terminal fragment deleted
- BMP4 binding (co-immunoprecipitation of Myc-BMP4) [2]: retained its BMP4 binding activity

B3: GRE-HA: HA-epitope tagged mouse Gremlin, full length, expressed by transfection (protein)
chain: KKKGSQGAIPPPDKAQHNDSEQTQSPPQPGSRTRGRGQGRGTAMPGEEVLESSQEALHVTERKYLKRDWCKTQPLKQTIHEEGCNSRTIINRFCYGQCNSFYIPRHIRKEEGSFQSCSFCKPKKFTTMMVTLNCPELQPPTKKKRVTRVKQCRCISIDLD
modifications: left off: small tags and cut ends
- BMP4 binding (co-immunoprecipitation of Myc-BMP4) [2]: Myc-BMP4 precursor was found in the cell lysate; also recorded: retained its BMP4 binding activity
- BMP4 inhibitory effect ([4]; CM from COS-1 cells transfected separately with Myc-BMP4 or GRE-HA and co-cultured during CM collection): 55±5%
- BMP4 activity inhibited ([4]; CM of Myc-BMP4 transfected cells plus equal amount of CM from GRE-HA transfected cells, mixed and preincubated 1 hour): 20±9%
- BMP4 activity inhibited ([4]; cells co-transfected with Myc-BMP4 and GRE-HA, p<0.05): 86±4%

B4: GRE-NF-HA: truncated HA-tagged Gremlin with the carboxyl-terminal DAN domain deleted (protein)
chain: KKKGSQGAIPPPDKAQHNDSEQTQSPPQPGSRTRGRGQGRGTAMPGEEVLESSQEALHVTERKYLKRDW
modifications: left off: small tags and cut ends
notes: truncated HA-tagged Gremlin with the carboxyl-terminal DAN domain deleted
- BMP4 binding (co-immunoprecipitation of Myc-BMP4) [2]: completely abolished

Now from value to molecule:

- inhibition of BMP4 activities [1]: 56±10%
Molecule: PKKFTTMMVTLNCPELQPPTKKKRVTRVKQ (listed as Homo sapiens) [linear peptide]

- inhibition of BMP4 activity (alkaline phosphatase activity, C2C12 cell differentiation assay); CM of Myc-BMP4 cells mixed with an equal amount of CM of GRE-HA cells [3]: 20%
- inhibition of BMP4 activity (alkaline phosphatase activity, C2C12 cell differentiation assay); CM of cells co-transfected with Myc-BMP4 and GRE-HA [3]: 86%
- inhibition of BMP4 activity (alkaline phosphatase activity, C2C12 cell differentiation assay); CM of co-cultured cells transfected separately with Myc-BMP4 or GRE-HA [3]: 55%
B2: HA-tagged mouse Gremlin (GRE-HA) (protein, not shown: small tags and cut ends)
chain: B3 chain
